Molecular target: MBP-BSU1 (Arabidopsis, UniProt Q9LR78 1-793)
Test: pull-down

Sequence of MBP-BSU1 (Q9LR78 whole entry): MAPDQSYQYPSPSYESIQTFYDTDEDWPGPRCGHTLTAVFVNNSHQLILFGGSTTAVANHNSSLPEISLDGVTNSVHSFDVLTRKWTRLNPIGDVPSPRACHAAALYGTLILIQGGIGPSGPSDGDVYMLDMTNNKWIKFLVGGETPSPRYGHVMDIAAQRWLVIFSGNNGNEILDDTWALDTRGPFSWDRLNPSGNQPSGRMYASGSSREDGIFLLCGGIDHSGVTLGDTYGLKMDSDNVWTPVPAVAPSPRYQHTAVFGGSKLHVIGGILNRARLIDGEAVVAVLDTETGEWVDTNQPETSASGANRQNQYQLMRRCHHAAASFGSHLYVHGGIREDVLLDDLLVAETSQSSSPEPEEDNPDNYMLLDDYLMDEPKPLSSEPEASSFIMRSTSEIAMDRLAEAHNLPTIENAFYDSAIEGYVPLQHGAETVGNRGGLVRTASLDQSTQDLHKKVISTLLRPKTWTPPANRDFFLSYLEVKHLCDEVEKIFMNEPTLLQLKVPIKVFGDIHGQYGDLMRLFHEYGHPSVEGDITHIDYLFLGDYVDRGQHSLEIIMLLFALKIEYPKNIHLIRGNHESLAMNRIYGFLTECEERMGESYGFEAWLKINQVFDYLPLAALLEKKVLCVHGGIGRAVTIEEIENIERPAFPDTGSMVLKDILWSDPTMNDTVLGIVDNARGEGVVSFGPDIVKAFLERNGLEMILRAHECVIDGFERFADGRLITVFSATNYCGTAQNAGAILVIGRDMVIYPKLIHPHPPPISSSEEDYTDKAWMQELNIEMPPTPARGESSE

B1: BSK1-myc (natural protein, UniProt Q944A7 1-512, looked up)
chain: MGCCQSLFSGDNPLGKDGVQPQPLSQNNHGGATTADNGGSGGASGVGGGGGGGGIPSFSEFSFADLKAATNNFSSDNIVSESGEKAPNLVYKGRLQNRRWIAVKKFTKMAWPEPKQFAEEAWGVGKLRHNRLANLIGYCCDGDERLLVAEFMPNDTLAKHLFHWENQTIEWAMRLRVGYYIAEALDYCSTEGRPLYHDLNAYRVLFDEDGDPRLSCFGLMKNSRDGKSYSTNLAYTPPEYLRNGRVTPESVTYSFGTVLLDLLSGKHIPPSHALDMIRGKNIILLMDSHLEGKFSTEEATVVVELASQCLQYEPRERPNTKDLVATLAPLQTKSDVPSYVMLGIKKQEEAPSTPQRPLSPLGEACSRMDLTAIHQILVMTHYRDDEGTNELSFQEWTQQMKDMLDARKRGDQSFREKDFKTAIDCYSQFIDVGTMVSPTVFGRRSLCYLLCDQPDAALRDAMQAQCVYPDWPTAFYMQSVALAKLNMNTDAADMLNEAAQLEEKRQRGGRGS
B1: binds.
